B1: GAL4 DNA binding domain fusion of human PKB alpha amino acids 411-480 (pGBT-CT) (other, yeast;human, UniProt P04386 1-147, looked up)
chain: MKLLSSIEQACDICRLKKLKCSKEKPKCAKCLKNNWECRYSPKTKRSPLTRAHLTEVESRLERLEQLFLLIFPREDLDMILKMDSLQDIKALLTGLFVQDNVNKDAVTDRLASVETDMPLTLRQHRISATSSSEESSNKGQRQLTVSIVWQHVYEKKLSPPFKPQVTSETDTRYFDEEFTAQMITITPPDQDDSMECVDSERRPHFPQFSYSASGTA
notes: range 1-147;range 411-480
B2: human Lamin C (control plasmid pLAM5') (other, UniProt P02545-2 66-230, looked up)
chain: SEEVVSREVSGIKAAYEAELGDARKTLDSVAKERARLQLELSKVREEFKELKARNTKKEGDLIAAQARLKDLEALLNSKEAALSTALSEKRTLEGELHDLRGQVAKLEAALGEAKKQLQDEMLRRVDAENRLQTMKEELDFQKNIYSEELRETKRRHETRLVEID
notes: Two-hybrid control protein; Lamin C is an isoform of the LMNA entry
B3: Gal4-AD-CTMP fusion protein encoded by pGADGH.CTMP (CTMPL fused to the GAL4 transcriptional activation domain) (other, not shown: small tags and cut ends)
chain: NSARARASAAPRPGAMLRSCAARLRTLGALCRPPVGRRLPGSEPRPELRSFSSEEVILKDCSVPNPSWNKDLRLLFDQFMKKCEDGSWKRLPSYKRTPTEWIQDFKTHFLDPKLMKEEQMSQAQLFTRSFDDGLGFEYVMFYNDIEKRMVCLFQGGPYLEGPPGFIHGGAIATMIDATVGMCAMMAGGIVMTANLNINYKRPIPLCSVVMINSQLDKVEGRKFFVSCNVQSVDEKTLYSEATSLFIKLNPAKSLT
notes: Yeast two-hybrid prey recovered from a HeLa cDNA library; also called this clone

Key:
[1] = target: B3; assay: yeast two-hybrid, His auxotrophy and lacZ reporters
[2] = target: T1, GAL4 DNA binding domain fusion of human PKB alpha amino acids 1-480 (pGBT-PH-KIN-CT, full-length PKB) (yeast; human, UniProt P04386 1-147; P31749 1-480); assay: yeast two-hybrid
T1 construct: range 1-147;range 1-480

[3] = target: T2, GAL4 DNA binding domain fusion of human PKB alpha amino acids 147-480 (pGBT-KIN-CT) (yeast; human, UniProt P04386 1-147; P31749 147-480); assay: yeast two-hybrid
T2 construct: range 1-147;range 147-480; Bait of the library screen; also called deltaPH

[4] = target: B1; assay: yeast two-hybrid
[5] = target: T1, GAL4 DNA binding domain fusion of human …; assay: yeast two-hybrid, His auxotrophy and lacZ reporters
[6] = target: T2, GAL4 DNA binding domain fusion of human …; assay: as above

Does B1 bind [1]?
Result: binds

Does B2 bind [2]?
Result: no binding

Does B2 bind [3]?
Result: no binding

Does B2 bind [4]?
Result: no binding

Does B3 bind [5]?
Result: binds

Does B3 bind [6]?
Result: binds

Reference: patent publication US20030124602A1 (Novartis, published 2003)
